Target: T1, ScErg28-Cub (S. cerevisiae, UniProt P40030 1-148)
T1 construct: Erg28 of S. cerevisiae, scaffold of the ergosome; Cub vector pCYC-BAIT-Cub-PLV; source: split-ubiquitin two-hybrid fusion, S. cerevisiae L40
T1 sequence: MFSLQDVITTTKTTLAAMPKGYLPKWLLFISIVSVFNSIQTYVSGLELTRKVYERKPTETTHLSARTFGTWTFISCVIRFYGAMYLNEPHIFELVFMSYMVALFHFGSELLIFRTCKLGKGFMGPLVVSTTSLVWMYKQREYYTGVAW
Assay: two-hybrid; split-ubiquitin two-hybrid in S. cerevisiae L40; Cub-PLV and NubG fusions; growth on Trp- Leu- His- plates after 48 hr and >3-fold β-galactosidase activity over the negative control
Details: partners not purified

B1: ScErg27-NubG (natural protein)
chain: MNRKVAIVTGTNSNLGLNIVFRLIETEDTNVRLTIVVTSRTLPRVQEVINQIKDFYNKSGRVEDLEIDFDYLLVDFTNMVSVLNAYYDINKKYRAINYLFVNAAQGIFDGIDWIGAVKEVFTNPLEAVTNPTYKIQLVGVKSKDDMGLIFQANVFGPYYFISKILPQLTRGKAYIVWISSIMSDPKYLSLNDIELLKTNASYEGSKRLVDLLHLATYKDLKKLGINQYVVQPGIFTSHSFSEYLNFFTYFGMLCLFYLARLLGSPWHNIDGYKAANAPVYVTRLANPNFEKQDVKYGSATSRDGMPYIKTQEIDPTGMSDVFAYIQKKKLEWDEKLKDQIVETRTPI
notes: Erg27 of S. cerevisiae; Nub vector pADH-PREY-2HA-NubG; source: split-ubiquitin two-hybrid fusion, S. cerevisiae L40
For B1, the “fold increase in β-galactosidase activity over the negative interaction control” value was 15 fold.

— PMC7367482, “An Erg11 lanosterol 14-α-demethylase-Arv1 complex is required for Candida albicans virulence” (PLoS ONE, 2020)
